For 3 substances, fold reduction of BiFC fluorescence against wild-type CXE15 and Kd results are on record in paper PMC12638876.

A value given as a limit tells only on which side of the number the result lay.

The target in assay [1] is CXE15 C14S fused to split YFP (Arabidopsis thaliana) (UniProt Q9FG13). The assay can be described thus: split reporter.
Assay [2] addresses full-length Arabidopsis thaliana CXE15 (Arabidopsis thaliana) (UniProt Q9FG13). The assay can be described thus: MST.
Assay [3] addresses CXE15 C14S mutant (Arabidopsis thaliana) (UniProt Q9FG13). Kind of assay: MST.

“CXE15 C14S fused to split YFP (from UniProt Q9FG13 1-329) (enzyme)” returned a fold reduction of BiFC fluorescence against wild-type CXE15 in assay [1] of over 2 fold.

For the substance “full-length Arabidopsis thaliana CXE15 (from UniProt Q9FG13 1-329) (enzyme)”, in assay [2], the Kd amounted to 1.62 µM. Turning to “CXE15 C14S mutant (from UniProt Q9FG13 1-329) (enzyme)”, the dissociation constant Kd in assay [3] was 4.5 µM. In other words, the single-digit micromolar range.

By Kd is commonly meant the concentration at which binding is half-saturated. A lower Kd goes with a tighter complex.
